# System: Escherichia coli TOP10
# Experiment: shrunken log2 fold change of peptide-encoding DNA abundance (4.5 h post-induction vs induction); higher = less antimicrobial activity (less host growth inhibition)
# Details: time post-induction: 4.5 h; library: site-saturation at positions 5, 18, 19, 20
# 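Also: peptides expressed intracellularly from a pBAD plasmid library in pooled LB shake-flask culture, induced with 0.3% L-arabinose, DNA abundance read by NGS, three biological replicates, DESeq2 with apeglm shrinkage.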
row,Sequence,shrunken log2 fold change
1,RRIRCRPPRLPRPRPRPHLDPRP,-0.0622
2,RRIRERPPRLPRPRPRPTDAPRP,0.0786
3,RRIRPRPPRLPRPRPRPGVGPRP,0.53
4,RRIRKRPPRLPRPRPRPDDCPRP,0.149
5,RRIRQRPPRLPRPRPRPINFPRP,0.0669
6,RRIRGRPPRLPRPRPRPWEWPRP,0.911
7,RRIRFRPPRLPRPRPRPHFHPRP,-0.75
8,RRIRYRPPRLPRPRPRPLFPPRP,-0.643
9,RRIRPRPPRLPRPRPRPWKKPRP,-0.0306
10,RRIRPRPPRLPRPRPRPFRGPRP,0.0377
11,RRIRQRPPRLPRPRPRPSHTPRP,-0.195
12,RRIRFRPPRLPRPRPRPMRTPRP,0.547
13,RRIRPRPPRLPRPRPRPDPHPRP,0.0782
14,RRIRQRPPRLPRPRPRPVRAPRP,0.38
15,RRIRMRPPRLPRPRPRPDRNPRP,1.4
16,RRIRKRPPRLPRPRPRPIEQPRP,-0.0195
17,RRIRCRPPRLPRPRPRPVSCPRP,0.193
18,RRIRLRPPRLPRPRPRPYEGPRP,0.0285
19,RRIRSRPPRLPRPRPRPYKDPRP,-0.716
20,RRIRSRPPRLPRPRPRPKALPRP,0.175
21,RRIRARPPRLPRPRPRPSNQPRP,-0.0197
22,RRIRGRPPRLPRPRPRPGSQPRP,0.722

row,Sequence,shrunken log2 fold change
1,RRIRCRPPRLPRPRPRPMWSPRP,-0.147
2,RRIRRRPPRLPRPRPRPHARPRP,0.586
3,RRIRQRPPRLPRPRPRPECWPRP,0.358
4,RRIRARPPRLPRPRPRPDVSPRP,0.106
5,RRIRFRPPRLPRPRPRPEWRPRP,0.531
6,RRIRRRPPRLPRPRPRPGGTPRP,0.245
7,RRIRTRPPRLPRPRPRPYRLPRP,-0.0268
8,RRIRWRPPRLPRPRPRPYFRPRP,-0.787
9,RRIRQRPPRLPRPRPRPWLWPRP,0.145
10,RRIRKRPPRLPRPRPRPPHCPRP,1.19
11,RRIRFRPPRLPRPRPRPCEEPRP,0.178
12,RRIRYRPPRLPRPRPRPGKDPRP,-0.148
13,RRIRPRPPRLPRPRPRPKDNPRP,-0.248
14,RRIRHRPPRLPRPRPRPPLRPRP,0.287
15,RRIRQRPPRLPRPRPRPEDCPRP,0.0138
16,RRIRVRPPRLPRPRPRPEFIPRP,-0.176
17,RRIRERPPRLPRPRPRPVAKPRP,0.197
18,RRIRPRPPRLPRPRPRPGQSPRP,0.421
19,RRIRWRPPRLPRPRPRPRPQPRP,0.588
20,RRIRFRPPRLPRPRPRPHEWPRP,-0.0176
21,RRIRYRPPRLPRPRPRPRFNPRP,-0.808
22,RRIRTRPPRLPRPRPRPHALPRP,0.0575

row,Sequence,shrunken log2 fold change
1,RRIRSRPPRLPRPRPRPKSNPRP,-0.347
2,RRIRFRPPRLPRPRPRPMLVPRP,-0.0924
3,RRIRCRPPRLPRPRPRPQGIPRP,0.158
4,RRIRQRPPRLPRPRPRPRIQPRP,-0.0402
5,RRIRCRPPRLPRPRPRPYIPPRP,-0.771
6,RRIRHRPPRLPRPRPRPGGDPRP,0.0994
7,RRIRVRPPRLPRPRPRPWVVPRP,-0.0754
8,RRIRLRPPRLPRPRPRPFPAPRP,-0.094
9,RRIRERPPRLPRPRPRPDCRPRP,0.0169
10,RRIRIRPPRLPRPRPRPFLVPRP,-0.759
11,RRIRWRPPRLPRPRPRPYCTPRP,-0.322
12,RRIRIRPPRLPRPRPRPGHPPRP,-0.212
13,RRIRMRPPRLPRPRPRPAPEPRP,0.874
14,RRIRIRPPRLPRPRPRPDNAPRP,-0.717
15,RRIRQRPPRLPRPRPRPGQEPRP,-0.018
16,RRIRSRPPRLPRPRPRPQRNPRP,0.104
17,RRIRARPPRLPRPRPRPFCNPRP,-0.0929
18,RRIRDRPPRLPRPRPRPAVSPRP,-0.000946
19,RRIRGRPPRLPRPRPRPNRAPRP,0.43
20,RRIRQRPPRLPRPRPRPDQDPRP,0.192
21,RRIRHRPPRLPRPRPRPHGTPRP,-0.0524
22,RRIRRRPPRLPRPRPRPFKIPRP,-0.00337

row,Sequence,shrunken log2 fold change
1,RRIRQRPPRLPRPRPRPGFHPRP,0.00101
2,RRIRGRPPRLPRPRPRPLVSPRP,0.355
3,RRIRIRPPRLPRPRPRPWRQPRP,0.0165
4,RRIRIRPPRLPRPRPRPHNIPRP,-0.424
5,RRIRYRPPRLPRPRPRPSFGPRP,-0.522
6,RRIRWRPPRLPRPRPRPVWHPRP,0.387
7,RRIRTRPPRLPRPRPRPDGMPRP,0.0749
8,RRIRARPPRLPRPRPRPTHTPRP,0.664
9,RRIRWRPPRLPRPRPRPEKSPRP,0.486
10,RRIRVRPPRLPRPRPRPRGTPRP,-0.164
11,RRIRTRPPRLPRPRPRPPEVPRP,0.0579
12,RRIRSRPPRLPRPRPRPLRVPRP,1.29
13,RRIRWRPPRLPRPRPRPWGCPRP,0.423
14,RRIRERPPRLPRPRPRPTKDPRP,-0.239
15,RRIRCRPPRLPRPRPRPHYEPRP,-0.442
16,RRIRPRPPRLPRPRPRPPKIPRP,0.0961
17,RRIRRRPPRLPRPRPRPTVQPRP,0.113
18,RRIRIRPPRLPRPRPRPPRVPRP,0.278
19,RRIRQRPPRLPRPRPRPMTPPRP,0.126
20,RRIRKRPPRLPRPRPRPPDYPRP,0.145
21,RRIRHRPPRLPRPRPRPWPMPRP,0.0159
22,RRIRQRPPRLPRPRPRPADFPRP,-0.193

row,Sequence,shrunken log2 fold change
1,RRIRDRPPRLPRPRPRPAKTPRP,0.152
2,RRIRARPPRLPRPRPRPQGQPRP,-0.2
3,RRIRERPPRLPRPRPRPWDSPRP,0.0192
4,RRIRVRPPRLPRPRPRPFPLPRP,-0.566
5,RRIRCRPPRLPRPRPRPHVKPRP,-0.284
6,RRIRARPPRLPRPRPRPMYMPRP,-0.354
7,RRIRNRPPRLPRPRPRPFSQPRP,-0.021
8,RRIRPRPPRLPRPRPRPNPWPRP,0.277
9,RRIRTRPPRLPRPRPRPASSPRP,-0.362
10,RRIRCRPPRLPRPRPRPLEAPRP,0.203
11,RRIRMRPPRLPRPRPRPDIQPRP,0.118
12,RRIRLRPPRLPRPRPRPAMTPRP,-0.113
13,RRIRVRPPRLPRPRPRPVPAPRP,0.391
14,RRIRHRPPRLPRPRPRPSPAPRP,0.108
15,RRIRTRPPRLPRPRPRPTFHPRP,-0.174
16,RRIRIRPPRLPRPRPRPFWEPRP,0.366
17,RRIRLRPPRLPRPRPRPEMYPRP,-0.00133
18,RRIRDRPPRLPRPRPRPTYFPRP,-0.0127
19,RRIRERPPRLPRPRPRPHECPRP,-0.0253
20,RRIRSRPPRLPRPRPRPISPPRP,-0.402
21,RRIRPRPPRLPRPRPRPHNPPRP,-0.0801

# — the supplement of paper PMC9112550, “Optimization of the antimicrobial peptide Bac7 by deep mutational scanning” (BMC Biology, 2022)
